Test results as given in paper PMC11398526.

Tests used:
[1] = target: progesterone receptor isoform A (PR-A), full-length, Strep II tagged (human) (UniProt P06401); test: SEC-MALS
[2] = target: steroid receptor coactivator 3 (SRC3), full-length, Strep II tagged (human) (UniProt Q9Y6Q9); test: SEC-MALS
Sequence of steroid receptor coactivator 3 (SRC3), full-length, Strep II tagged (human) (Q9Y6Q9 whole entry): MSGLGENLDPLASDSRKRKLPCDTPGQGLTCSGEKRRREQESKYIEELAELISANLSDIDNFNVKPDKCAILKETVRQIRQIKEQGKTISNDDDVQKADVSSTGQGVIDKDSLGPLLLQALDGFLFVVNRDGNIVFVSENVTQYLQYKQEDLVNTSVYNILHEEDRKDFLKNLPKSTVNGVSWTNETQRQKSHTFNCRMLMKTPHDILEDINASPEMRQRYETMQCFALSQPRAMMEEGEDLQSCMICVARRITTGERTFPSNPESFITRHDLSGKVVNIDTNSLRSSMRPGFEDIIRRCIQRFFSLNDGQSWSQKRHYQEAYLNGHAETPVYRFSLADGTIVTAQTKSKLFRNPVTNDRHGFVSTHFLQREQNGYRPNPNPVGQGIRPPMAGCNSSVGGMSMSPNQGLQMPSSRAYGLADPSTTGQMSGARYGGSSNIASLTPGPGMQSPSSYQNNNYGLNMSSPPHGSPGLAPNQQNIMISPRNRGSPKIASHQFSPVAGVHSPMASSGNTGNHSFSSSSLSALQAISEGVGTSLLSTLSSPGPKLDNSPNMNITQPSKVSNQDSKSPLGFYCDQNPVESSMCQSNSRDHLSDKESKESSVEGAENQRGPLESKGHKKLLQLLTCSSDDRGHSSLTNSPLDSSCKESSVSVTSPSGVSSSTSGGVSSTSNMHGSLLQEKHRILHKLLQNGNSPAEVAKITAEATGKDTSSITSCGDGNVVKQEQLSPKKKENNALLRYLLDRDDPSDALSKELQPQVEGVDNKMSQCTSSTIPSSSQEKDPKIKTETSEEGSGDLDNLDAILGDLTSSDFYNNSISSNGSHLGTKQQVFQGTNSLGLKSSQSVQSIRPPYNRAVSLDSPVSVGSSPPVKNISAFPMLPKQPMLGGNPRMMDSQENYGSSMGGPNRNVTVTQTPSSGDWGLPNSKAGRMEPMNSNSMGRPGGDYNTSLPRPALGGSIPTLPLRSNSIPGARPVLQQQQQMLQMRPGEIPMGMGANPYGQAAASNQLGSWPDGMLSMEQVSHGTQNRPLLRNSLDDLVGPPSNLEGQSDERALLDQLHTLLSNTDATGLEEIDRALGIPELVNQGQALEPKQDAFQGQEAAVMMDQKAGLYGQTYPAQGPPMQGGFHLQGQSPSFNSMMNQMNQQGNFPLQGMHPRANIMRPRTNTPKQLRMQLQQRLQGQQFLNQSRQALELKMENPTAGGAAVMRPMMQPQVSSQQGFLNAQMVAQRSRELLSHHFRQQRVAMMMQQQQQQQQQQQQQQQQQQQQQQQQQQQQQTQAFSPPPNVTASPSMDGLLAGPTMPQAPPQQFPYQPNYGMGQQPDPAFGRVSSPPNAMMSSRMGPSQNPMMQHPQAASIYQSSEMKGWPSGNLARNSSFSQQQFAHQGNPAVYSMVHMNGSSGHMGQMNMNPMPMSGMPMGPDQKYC

Sequence of progesterone receptor isoform A (PR-A), full-length, Strep II tagged (human) (P06401 165-933): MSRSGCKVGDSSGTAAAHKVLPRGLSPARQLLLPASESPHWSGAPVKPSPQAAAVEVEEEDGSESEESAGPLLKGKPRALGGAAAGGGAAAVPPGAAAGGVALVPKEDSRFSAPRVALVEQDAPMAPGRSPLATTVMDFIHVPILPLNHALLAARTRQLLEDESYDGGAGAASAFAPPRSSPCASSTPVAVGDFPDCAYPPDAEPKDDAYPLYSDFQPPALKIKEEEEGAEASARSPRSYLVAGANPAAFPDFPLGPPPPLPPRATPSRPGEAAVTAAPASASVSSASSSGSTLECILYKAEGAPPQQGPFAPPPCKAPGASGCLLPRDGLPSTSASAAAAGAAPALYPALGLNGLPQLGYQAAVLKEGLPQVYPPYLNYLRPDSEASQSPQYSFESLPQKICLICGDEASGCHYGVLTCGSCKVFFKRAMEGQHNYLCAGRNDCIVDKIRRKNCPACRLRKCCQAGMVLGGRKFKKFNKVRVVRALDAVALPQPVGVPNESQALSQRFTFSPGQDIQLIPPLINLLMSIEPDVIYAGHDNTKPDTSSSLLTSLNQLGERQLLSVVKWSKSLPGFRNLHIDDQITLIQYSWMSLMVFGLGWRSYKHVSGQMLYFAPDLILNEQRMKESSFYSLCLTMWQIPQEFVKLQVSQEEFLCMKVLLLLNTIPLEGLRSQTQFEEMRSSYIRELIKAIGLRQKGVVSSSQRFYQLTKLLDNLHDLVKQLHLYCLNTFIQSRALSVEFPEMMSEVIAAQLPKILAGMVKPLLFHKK

Which stoichiometry N (p300 per PR-A) [1] does the source give for “histone acetyltransferase p300, full-length, Strep II tagged, Q09472 1-2414” here?
The stoichiometry N (p300 per PR-A) was 0.5.

What about the stoichiometry N (p300 per SRC3) [2] of the same substance?
Its stoichiometry N (p300 per SRC3) is 1.
